From article PMC3831237

B1: Nfo (Pseudomonas putida S16) (protein)
chain: MKGYNVYANGIRQHIIHFPGTGSPLLLIPGITSPAVTWGFVAERLAKYFDVHVVDVRGRGLSESGDLDYSLDAMADDLVALAQRMEGVVVLGHSMGARIAIRAARKDSQVFSRLILVDPPVSGPGRRPYPAKWSWYAESIRLAQRGCTAMEMRSYCPTWTDEQIELRAEWLHTCQYTAVKTAFDGFHTDDIHTDLAQLTLPIQLVVAGGAEVIQPDDIAEIISLAPQTTTYVVEEAGHMIPWDNLEGFITAVSNR

Key:
[1] = target: 2,5-DHP dioxygenase Hpo from Pseudomonas putida S16 (non-His6-tagged) (Pseudomonas putida S16); assay: SEC + native gel or EMSA
purified protein = substrate: O=CNC(=O)/C=C/C(=O)O; assay: purified protein; conditions: 20 mM sodium phosphate pH 6.7, 25 °C

Molecule	stoichiometry N [1]	Km (purified protein) [mM]	kcat (purified protein) [s⁻¹]
2,5-DHP dioxygenase Hpo from Pseudomonas putida S16 (non-His6-tagged) (enzyme)	3		
B1		5.83 ± 0.46	2.4 ± 0.1
